# Assay results taken from the supplement of paper PMC9112550, “Optimization of the antimicrobial peptide Bac7 by deep mutational scanning” (BMC Biology, 2022).
# System: Escherichia coli TOP10
# Assay: shrunken log2 fold change of peptide-encoding DNA abundance (4.5 h post-induction vs induction); higher = less antimicrobial activity (less host growth inhibition)
# Conditions: time post-induction: 4.5 h; library: site-saturation at positions 5, 18, 19, 20
# 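Further: peptides expressed intracellularly from a pBAD plasmid library in pooled LB shake-flask culture, induced with 0.3% L-arabinose, DNA abundance read by NGS, three biological replicates, DESeq2 with apeglm shrinkage.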
row,Sequence,shrunken log2 fold change
1,RRIRPRPPRLPRPRPRPNSGPRP,0.0788
2,RRIRYRPPRLPRPRPRPWIYPRP,-0.138
3,RRIRMRPPRLPRPRPRPYQIPRP,-0.0607
4,RRIRWRPPRLPRPRPRPSEHPRP,-0.0852
5,RRIRERPPRLPRPRPRPMRLPRP,0.472
6,RRIRYRPPRLPRPRPRPVDWPRP,0.145
7,RRIRRRPPRLPRPRPRPVSWPRP,0.849
8,RRIRERPPRLPRPRPRPDFHPRP,-0.498
9,RRIRCRPPRLPRPRPRPCQWPRP,-0.00783
10,RRIRSRPPRLPRPRPRPCYIPRP,-0.582
11,RRIRDRPPRLPRPRPRPHHNPRP,-0.562
12,RRIRDRPPRLPRPRPRPNIWPRP,0.306
13,RRIRFRPPRLPRPRPRPYWEPRP,-0.391
14,RRIRQRPPRLPRPRPRPINRPRP,-0.341
15,RRIRDRPPRLPRPRPRPQTMPRP,-0.067
16,RRIRPRPPRLPRPRPRPKMFPRP,0.149
17,RRIRDRPPRLPRPRPRPTSVPRP,-0.0218
18,RRIRMRPPRLPRPRPRPPGIPRP,1.2
19,RRIRWRPPRLPRPRPRPINHPRP,-0.914
20,RRIRRRPPRLPRPRPRPGEQPRP,0.301
21,RRIRCRPPRLPRPRPRPNKRPRP,-0.42
22,RRIRQRPPRLPRPRPRPDDYPRP,0.0372
23,RRIRLRPPRLPRPRPRPVSVPRP,-0.118
24,RRIRERPPRLPRPRPRPHDHPRP,-0.224
25,RRIRHRPPRLPRPRPRPYGHPRP,-0.551

row,Sequence,shrunken log2 fold change
1,RRIRPRPPRLPRPRPRPKPQPRP,0.397
2,RRIRGRPPRLPRPRPRPIYQPRP,0.0644
3,RRIRVRPPRLPRPRPRPSYNPRP,-0.485
4,RRIRHRPPRLPRPRPRPSQDPRP,-0.032
5,RRIRTRPPRLPRPRPRPVPPPRP,0.396
6,RRIRTRPPRLPRPRPRPSDKPRP,-0.0752
7,RRIRNRPPRLPRPRPRPWYGPRP,-0.56
8,RRIRERPPRLPRPRPRPWTPPRP,-0.15
9,RRIRQRPPRLPRPRPRPPMPPRP,0.237
10,RRIRPRPPRLPRPRPRPDHCPRP,-0.199
11,RRIRCRPPRLPRPRPRPLTPPRP,0.292
12,RRIRFRPPRLPRPRPRPEWGPRP,0.186
13,RRIRDRPPRLPRPRPRPIDMPRP,-0.185
14,RRIRSRPPRLPRPRPRPVSWPRP,0.437
15,RRIRRRPPRLPRPRPRPTNCPRP,-0.197
16,RRIRHRPPRLPRPRPRPKFNPRP,-0.437
17,RRIRCRPPRLPRPRPRPTDAPRP,0.215
18,RRIRRRPPRLPRPRPRPHEMPRP,0.489
19,RRIRPRPPRLPRPRPRPDYAPRP,0.0585
20,RRIRGRPPRLPRPRPRPYYVPRP,-0.0871
21,RRIRGRPPRLPRPRPRPLQYPRP,-0.251
22,RRIRNRPPRLPRPRPRPRQVPRP,-0.306
23,RRIRKRPPRLPRPRPRPAKVPRP,0.0797
24,RRIRARPPRLPRPRPRPLNHPRP,-0.265
25,RRIRPRPPRLPRPRPRPRKAPRP,0.0787

row,Sequence,shrunken log2 fold change
1,RRIRQRPPRLPRPRPRPYGPPRP,-0.415
2,RRIRCRPPRLPRPRPRPGKMPRP,-0.055
3,RRIRCRPPRLPRPRPRPLHVPRP,-0.178
4,RRIRERPPRLPRPRPRPVNFPRP,-0.0265
5,RRIRKRPPRLPRPRPRPLESPRP,0.515
6,RRIRDRPPRLPRPRPRPDMYPRP,0.214
7,RRIRSRPPRLPRPRPRPIPHPRP,-0.184
8,RRIRARPPRLPRPRPRPGMLPRP,0.334
9,RRIRIRPPRLPRPRPRPSQHPRP,-0.71
10,RRIRGRPPRLPRPRPRPWADPRP,0.142
11,RRIRRRPPRLPRPRPRPKHMPRP,0.932
12,RRIRMRPPRLPRPRPRPMKCPRP,0.0208
13,RRIRGRPPRLPRPRPRPYSNPRP,0.0659
14,RRIRNRPPRLPRPRPRPGCTPRP,0.0156
15,RRIRIRPPRLPRPRPRPPKWPRP,-0.00369
16,RRIRHRPPRLPRPRPRPHIRPRP,-0.0193
17,RRIRIRPPRLPRPRPRPDTRPRP,-0.293
18,RRIRCRPPRLPRPRPRPRDAPRP,0.56
19,RRIRIRPPRLPRPRPRPMERPRP,-0.0018
20,RRIRYRPPRLPRPRPRPSYVPRP,-1.29
21,RRIRGRPPRLPRPRPRPFGLPRP,-0.0119
22,RRIRCRPPRLPRPRPRPPWGPRP,0.122
23,RRIRLRPPRLPRPRPRPAEDPRP,-0.00769
24,RRIRWRPPRLPRPRPRPKNRPRP,0.017
25,RRIRKRPPRLPRPRPRPSAKPRP,0.397

row,Sequence,shrunken log2 fold change
1,RRIRPRPPRLPRPRPRPDWSPRP,-0.195
2,RRIRSRPPRLPRPRPRPDMRPRP,0.187
3,RRIRWRPPRLPRPRPRPMSEPRP,0.0832
4,RRIRSRPPRLPRPRPRPNLEPRP,-0.144
5,RRIRQRPPRLPRPRPRPDRMPRP,-0.0981
6,RRIRLRPPRLPRPRPRPHEYPRP,-0.0491
7,RRIRLRPPRLPRPRPRPANMPRP,-0.0319
8,RRIRARPPRLPRPRPRPTKSPRP,0.032
9,RRIRSRPPRLPRPRPRPPCDPRP,0.0563
10,RRIRERPPRLPRPRPRPTCPPRP,-0.103
11,RRIRVRPPRLPRPRPRPGSEPRP,0.168
12,RRIRSRPPRLPRPRPRPDVPPRP,-0.0936
13,RRIRIRPPRLPRPRPRPTMTPRP,-0.0629
14,RRIRVRPPRLPRPRPRPNYNPRP,-0.76
15,RRIRTRPPRLPRPRPRPEDSPRP,-0.0215
16,RRIRFRPPRLPRPRPRPCMGPRP,-0.49
17,RRIRFRPPRLPRPRPRPQHRPRP,-0.0907
18,RRIRTRPPRLPRPRPRPPNEPRP,0.207
19,RRIRVRPPRLPRPRPRPHMAPRP,-0.339
20,RRIRVRPPRLPRPRPRPRGYPRP,-0.068
21,RRIRHRPPRLPRPRPRPAHEPRP,0.0538
22,RRIRRRPPRLPRPRPRPKESPRP,0.023
23,RRIRHRPPRLPRPRPRPDEWPRP,-0.000921
24,RRIRVRPPRLPRPRPRPTKMPRP,0.0488
25,RRIRERPPRLPRPRPRPCSYPRP,-0.0141

row,Sequence,shrunken log2 fold change
1,RRIRPRPPRLPRPRPRPRKRPRP,0.198
2,RRIRMRPPRLPRPRPRPKNWPRP,0.671
3,RRIRRRPPRLPRPRPRPPDWPRP,0.618
4,RRIRFRPPRLPRPRPRPHCAPRP,-0.17
5,RRIRCRPPRLPRPRPRPDPCPRP,-0.039
6,RRIRWRPPRLPRPRPRPCANPRP,0.0268
7,RRIRIRPPRLPRPRPRPAQFPRP,0.0396
8,RRIRHRPPRLPRPRPRPQWVPRP,0.0322
9,RRIRMRPPRLPRPRPRPMSFPRP,-0.0179
10,RRIRGRPPRLPRPRPRPHIKPRP,-0.0279
11,RRIRKRPPRLPRPRPRPPTWPRP,0.702
12,RRIRQRPPRLPRPRPRPTNAPRP,-0.309
13,RRIRWRPPRLPRPRPRPIKKPRP,-0.0218
14,RRIRWRPPRLPRPRPRPEICPRP,0.127
15,RRIRMRPPRLPRPRPRPIPNPRP,0.983
16,RRIRERPPRLPRPRPRPRNLPRP,-0.514
17,RRIRPRPPRLPRPRPRPKVLPRP,0.038
18,RRIRDRPPRLPRPRPRPTKFPRP,0.138
19,RRIRNRPPRLPRPRPRPLTGPRP,0.0323
20,RRIRARPPRLPRPRPRPWCQPRP,-0.031
21,RRIRMRPPRLPRPRPRPWKIPRP,-0.0114
22,RRIRARPPRLPRPRPRPFEPPRP,0.276
23,RRIRQRPPRLPRPRPRPHNVPRP,-0.0684
24,RRIRPRPPRLPRPRPRPVPPPRP,0.26
25,RRIRTRPPRLPRPRPRPKDYPRP,-0.115

row,Sequence,shrunken log2 fold change
1,RRIRNRPPRLPRPRPRPKCHPRP,0.0244
2,RRIRFRPPRLPRPRPRPAADPRP,0.0709
3,RRIRWRPPRLPRPRPRPYWNPRP,-0.645
4,RRIRTRPPRLPRPRPRPRCDPRP,0.13
5,RRIRWRPPRLPRPRPRPYCCPRP,-0.569
6,RRIRQRPPRLPRPRPRPAMPPRP,0.306
7,RRIRNRPPRLPRPRPRPSVTPRP,0.0789
8,RRIRTRPPRLPRPRPRPYRQPRP,-0.00615
9,RRIRGRPPRLPRPRPRPSEMPRP,0.4
10,RRIRQRPPRLPRPRPRPCRFPRP,0.00388
11,RRIRFRPPRLPRPRPRPPPAPRP,1.49
12,RRIRPRPPRLPRPRPRPPDQPRP,0.601
13,RRIRQRPPRLPRPRPRPRDMPRP,-0.046
14,RRIRRRPPRLPRPRPRPPFCPRP,0.627
15,RRIRYRPPRLPRPRPRPWVIPRP,-0.0317
16,RRIRKRPPRLPRPRPRPWWMPRP,0.105
17,RRIRFRPPRLPRPRPRPKCWPRP,0.267
18,RRIRLRPPRLPRPRPRPFLVPRP,-0.338
19,RRIRSRPPRLPRPRPRPSAQPRP,0.198
20,RRIRRRPPRLPRPRPRPEMLPRP,0.0638
21,RRIRNRPPRLPRPRPRPLVLPRP,-0.171
22,RRIRERPPRLPRPRPRPDKTPRP,-0.0128
23,RRIRHRPPRLPRPRPRPMAMPRP,0.00505
24,RRIRDRPPRLPRPRPRPESVPRP,0.0047
25,RRIRARPPRLPRPRPRPFIVPRP,-0.286
